Assay results from article PMC5575521, “Liver microsomal lipid enhances the activity and redox coupling of colocalized cytochrome P450 reductase‐cytochrome P450 3A4 in nanodiscs” (The Febs Journal, 2017).

Legend:
Conditions in all cases: both partners purified
[1] = target: T1, cytochrome P450 3A4 (CYP3A4), human, C-terminally His-tagged, expressed from pB84 (human, UniProt P08684 1-503); assay: absorbance spectroscopy of the co-purified nanodiscs (fit of a convolution spectrum); CPR-CYP3A4-nanodiscs of POPC after Ni-affinity and gel filtration; spectra of singly loaded nanodiscs as basis spectra
T1 construct: human cytochrome P450 3A4 with its own N-terminal membrane anchor domain; expressed with an OmpA leader that is cleaved off during membrane targeting; source: E. coli K12 JM109, solubilised with CHAPS, purified (Ni-NTA agarose); not shown: His-tag, C-terminal, kept
T1 sequence (P08684 whole entry, the tested form may be a part): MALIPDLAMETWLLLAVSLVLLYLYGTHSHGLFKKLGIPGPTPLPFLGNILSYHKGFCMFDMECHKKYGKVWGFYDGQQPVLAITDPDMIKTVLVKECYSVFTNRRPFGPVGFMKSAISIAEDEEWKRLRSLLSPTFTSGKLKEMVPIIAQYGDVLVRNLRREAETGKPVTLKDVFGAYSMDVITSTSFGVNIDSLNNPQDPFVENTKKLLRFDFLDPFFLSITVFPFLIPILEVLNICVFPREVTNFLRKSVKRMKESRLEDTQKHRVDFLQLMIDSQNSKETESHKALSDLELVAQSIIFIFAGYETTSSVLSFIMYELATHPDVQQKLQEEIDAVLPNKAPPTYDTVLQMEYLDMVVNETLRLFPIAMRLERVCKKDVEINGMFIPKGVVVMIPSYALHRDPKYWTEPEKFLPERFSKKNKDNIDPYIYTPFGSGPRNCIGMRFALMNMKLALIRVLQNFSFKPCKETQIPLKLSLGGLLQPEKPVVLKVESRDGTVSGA

[2] = target: T1, cytochrome P450 3A4 (CYP3A4), human, …; assay: absorbance spectroscopy of the co-purified nanodiscs (fit of a convolution spectrum); CPR-CYP3A4-nanodiscs of mixed lipid (ER mimic) after Ni-affinity and gel filtration; spectra of singly loaded nanodiscs as basis spectra
[3] = target: T1, cytochrome P450 3A4 (CYP3A4), human, …; assay: absorbance spectroscopy of the co-purified nanodiscs (fit of a convolution spectrum); CPR-CYP3A4-nanodiscs of bovine liver microsomal lipid after Ni-affinity and gel filtration; spectra of singly loaded nanodiscs as basis spectra

B1: NADPH-dependent cytochrome P450 oxidoreductase (CPR), full-length human, expressed from pPORh1 (enzyme)
chain: GIPGSMGDSHVDTSSTVSEAVAEEVSLFSMTDMILFSLIVGLLTYWFLFRKKKEEVPEFTKIQTLTSSVRESSFVEKMKKTGRNIIVFYGSQTGTAEEFANRLSKDAHRYGMRGMSADPEEYDLADLSSLPEIDNALVVFCMATYGEGDPTDNAQDFYDWLQETDVDLSGVKFAVFGLGNKTYEHFNAMGKYVDKRLEQLGAQRIFELGLGDDDGNLEEDFITWREQFWPAVCEHFGVEATGEESSIRQYELVVHTDIDAAKVYMGEMGRLKSYENQKPPFDAKNPFLAAVTTNRKLNQGTERHLMHLELDISDSKIRYESGDHVAVYPANDSALVNQLGKILGADLDVVMSLNNLDEESNKKHPFPCPTSYRTALTYYLDITNPPRTNVLYELAQYASEPSEQELLRKMASSSGEGKELYLSWVVEARRHILAILQDCPSLRPPIDHLCELLPRLQARYYSIASSSKVHPNSVHICAVVVEYETKAGRINKGVATNWLRAKEPAGENGGRALVPMFVRKSQFRLPFKATTPVIMVGPGTGVAPFIGFIQERAWLRQQGKEVGETLLYYGCRRSDEDYLYREELAQFHRDGALTQLNVAFSREQSHKVYVQHLLKQDREHLWKLIEGGAHIYVCGDARNMARDVQNTFYDIVAELGAMEHAQAVDYIKKLMTKGRYSLDVWS
notes: printed in three-letter code as Gly-Iso-Pro-Gly-Ser; human NADPH-dependent cytochrome P450 reductase (CPR), full length with its N-terminal membrane anchor domain; Expressed with an N-terminal OmpA leader for periplasmic membrane targeting; also called cytochrome P450 reductase; full-length CPR; source: E. coli C41(DE3), solubilised from membranes with Triton X-100, purified (2',5'-ADP Sepharose …)
- stoichiometry N [1]: 0.8 CPR : CYP (molar ratio)
- stoichiometry N [2]: 1.1 CPR : CYP (molar ratio)
- stoichiometry N [3]: 1 CPR : CYP (molar ratio)
